The numbers were not newly measured in paper PMC5874834, which cites them from elsewhere.

As a reminder, the pKd is −log10 of the Kd, conventionally taken in molar units.

The target of this series is VEGF165 VEGF165 (Homo sapiens) (UniProt P15692).

pKd: −log10 of the molar value.

Chain of UniProt P15692 (P15692 207-321, chain 1 of 2): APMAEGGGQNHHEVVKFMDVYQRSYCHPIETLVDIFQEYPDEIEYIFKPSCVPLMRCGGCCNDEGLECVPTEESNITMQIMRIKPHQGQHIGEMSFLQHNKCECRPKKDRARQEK
Chain of UniProt P15692 (P15692 346-395, chain 2 of 2): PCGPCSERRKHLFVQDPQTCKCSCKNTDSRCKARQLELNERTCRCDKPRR

For the substance Brolucizumab scFv, the pKd is 11.80.
